What all share (experiment): indirect ELISA, protein coated, culture supernatant at 1/50
Assay [1] addresses T1, deamidated low-molecular weight glutenin.
T1 construct: also called Glut; LMW-D; deam; LMW
How it is done: (§1) 100 μl of proteins at 1 μg/ml in 50 mM carbonate buffer, pH 9.6, are incubated overnight at 4° C. at the bottom of a 96-well, bottom, plate (Nunc, Maxisorb). After 3 washes with PBS-0.05% Tween 20, an incubation with PBS-2% (w/v) milk is carried out. The PEE 14C7 monoclonal antibody (100 μl of various dilutions of antibody in PBS-0.1% (w/v) milk) is incubated for 1 h at ambient temperature. After washes with PBS-0.05% Tween 20, 100 μl of the peroxidase-coupled goat anti-mouse IgG secondary antibody (ref: 170-6516, Bio-Rad) diluted to 1/3000 is incubated for 1 h at ambient temperature under the same conditions as the primary antibody. After 3 washes, the OPD (0-phenylenediamine, ref: P-1526, Sigma) substrate is incubated for 30 min in the dark. The reaction is stopped by adding 50 μl of H2SO₄ 4N. The optical densities are read at dual wavelength (490 nm for measuring the hydrolysis of the substrate and 630 nm for eliminating the background noise) on a plate spectrometer (Bioteck, E1x808-1).
(§2) The percentages of reactivity of the antibody with respect to each protein are determined as described in Tranquet et al. (2012). In the present case, the percentages are determined at the 1/50 dilution of the culture supernatant (i.e. the strongest dilution which makes it possible to obtain the strongest absorbence on the best-recognized protein—deamidated gamma-gliadins). The percentage recognition of a protein X is obtained by calculating the Protein X absorbence/deamidated gamma-gliadin absorbence ratio.

A further assay deals with T2, native γ-gliadin.
T2 construct: also called non-deamidated γ-gliadin
The protocol: as §1, §2

The target in another assay is T3, deamidated ω-5 gliadin.
T3 construct: also called ω5-D; deam. ω5
How it is done: as §1, §2

Another assay deals with T4, deamidated ω-2 gliadin.
T4 construct: also called ω2-D; deam. ω2
The protocol: as §1, §2

For a further assay, the target named is T5, native ω-2 gliadin.
T5 construct: also called non-deamidated ω-2 gliadin
How it is done: as §1, §2

Assay [2] addresses T6, native high-molecular-weight glutenin.
T6 construct: also called HMW
The protocol: as §1, §2

Assay [3] has as its target non-deamidated native ω-5 gliadin. The protocol: as §1, §2
Another assay concerns the target T7, native α-gliadin.
T7 construct: also called non-deamidated α-gliadin
How it is done: as §1, §2

The target in assay [4] is T8, native low-molecular-weight glutenin.
T8 construct: also called LMW
How it is done:
as §1, §2

In a further assay the target is T9, native β-gliadin.
T9 construct: also called non-deamidated β-gliadin
The protocol:
as §1, §2

For a further assay, the target named is T10, deamidated α-gliadin.
T10 construct: also called α-D; deam. α
How it is done: as §1, §2

B1: PEE 14C7 monoclonal antibody (antibody, IgG1, V domains shown)
VH: DVQLQESGPDLVKPSQSLSLTCTVTGYSITSGYSWHWIRQFPGNKLEWMGYIHYSGSTNYNPSLKSRISITRDTSKNQFFLQLNSVTTEDTATYYCASGYFDVWGAGTTVTVSS
VL: DVVMTQTPLSLPVSLGDQASISCRSSQSLVHSNGNTYLHWYLQKPGQSPKLLIYKVSNRFSGVPDRFSGSGSGTDFTLKISRVEAEDLGVYFCSQSTLVPWTFGGGTKLEIK
notes: Used in the assays as hybridoma culture supernatant; also called PEE 14C7 antibody; monoclonal antibody produced by the PEE 14C7 hybridoma
With B1, the “percentage of reactivity (Protein X absorbence/deamidated gamma-gliadin absorbence)” value in [1] was 97%; with native γ-gliadin, 1%; with deamidated ω-5 gliadin it was 99%; in the assay with deamidated ω-2 gliadin it was 94%; in the assay with native ω-2 gliadin, 39%; in assay [2] it was 2%. Further, the “percentage of reactivity (Protein X absorbence/deamidated gamma-gliadin absorbence)” value in assay [3] is 7%; with native α-gliadin, 1%; in [4], 26%; in the assay with native β-gliadin, 4%; with deamidated α-gliadin, 76%.

The record behind these values is patent US20160108107A1 (INSTITUT NATIONAL DE LA RECHERCHE AGRONOMIQUE INRA, published 2016).
